In test [1] the target is ETR2 (Arabidopsis thaliana) (UniProt Q0WPQ2). The experiment in a line: MST. Particulars: cited from earlier work.
The target of test [2] is recombinant full-length Arabidopsis histidine kinase AHK1 (H10-TEV-AHK1), solubilized in FosCholine-16 (Arabidopsis thaliana) (UniProt Q9SXL4). The experiment in a line: MST; 40 nM AlexaFluor488-labelled AHK1 titrated with unlabelled AHK1 (12 uM to 0.4 nM); 50 mM Tris, 300 mM NaCl, 0.015% FosCholine-16, glycerol, pH 7.6; 40% MST power, 70% LED power; initial fluorescence evaluated; one-binding-site model; apparent Kd; monomer to dimer.

Test [3] addresses AHP1 (Arabidopsis thaliana) (UniProt Q9ZNV9). The conditions noted are these: cited from earlier work.
Test [4] has as its target ETR1 (Arabidopsis thaliana) (UniProt P49333). The experiment in a line: MST. Particulars: cited from earlier work.
In test [5] the target is T1, recombinant full-length Arabidopsis histidine kinase AHK1 (H10-TEV-AHK1), solubilized in FosCholine-16 (Arabidopsis thaliana, UniProt Q9SXL4 1-1207, AlexaFluor488-NHS label on the labelled copy (40 nM) used in MST; the titrated copy is unlabelled).
T1 construct: Arabidopsis histidine kinase 1 (AHK1), Arabidopsis thaliana, full length; cloned into pET16b-H10-TEV with primers from the ATG to the stop codon; a TEV site lies between the tag and AHK1; No step that cleaves the tag is described; also called AHK1 sensor kinase; AHK1 osmosensor; source: E. coli BL21 (DE3) with pRARE, solubilized with 1% FosCholine-16, purified (Ni-NTA)
T1 sequence (looked up): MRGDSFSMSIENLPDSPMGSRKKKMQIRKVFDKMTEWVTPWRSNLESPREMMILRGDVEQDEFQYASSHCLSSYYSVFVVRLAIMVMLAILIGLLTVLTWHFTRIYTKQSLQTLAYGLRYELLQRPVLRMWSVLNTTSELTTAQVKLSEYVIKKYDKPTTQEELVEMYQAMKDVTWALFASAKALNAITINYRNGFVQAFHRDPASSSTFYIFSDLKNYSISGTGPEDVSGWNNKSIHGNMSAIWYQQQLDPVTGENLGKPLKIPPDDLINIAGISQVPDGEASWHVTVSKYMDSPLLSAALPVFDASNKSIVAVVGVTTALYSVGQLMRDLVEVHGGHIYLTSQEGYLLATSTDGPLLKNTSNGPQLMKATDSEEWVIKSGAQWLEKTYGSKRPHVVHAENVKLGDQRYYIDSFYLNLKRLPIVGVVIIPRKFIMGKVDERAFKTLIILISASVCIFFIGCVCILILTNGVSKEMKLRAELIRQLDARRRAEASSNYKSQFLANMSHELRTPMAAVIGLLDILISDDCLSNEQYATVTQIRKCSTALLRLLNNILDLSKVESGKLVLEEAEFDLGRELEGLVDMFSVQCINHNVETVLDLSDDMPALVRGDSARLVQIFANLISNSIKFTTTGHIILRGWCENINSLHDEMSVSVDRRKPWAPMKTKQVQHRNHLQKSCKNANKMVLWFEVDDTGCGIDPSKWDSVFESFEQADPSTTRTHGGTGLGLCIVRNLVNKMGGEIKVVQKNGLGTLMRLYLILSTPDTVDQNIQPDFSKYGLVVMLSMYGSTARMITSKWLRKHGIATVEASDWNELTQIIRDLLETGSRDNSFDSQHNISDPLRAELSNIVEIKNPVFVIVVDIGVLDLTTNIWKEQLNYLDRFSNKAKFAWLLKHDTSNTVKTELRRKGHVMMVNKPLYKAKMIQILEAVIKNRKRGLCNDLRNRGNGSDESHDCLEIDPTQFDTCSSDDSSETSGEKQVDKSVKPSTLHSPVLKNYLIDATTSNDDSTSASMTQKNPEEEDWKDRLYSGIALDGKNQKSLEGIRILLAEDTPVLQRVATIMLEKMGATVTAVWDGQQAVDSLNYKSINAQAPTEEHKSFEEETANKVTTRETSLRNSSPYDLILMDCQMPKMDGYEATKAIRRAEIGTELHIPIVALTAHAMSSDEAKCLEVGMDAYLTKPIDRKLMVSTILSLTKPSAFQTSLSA
The experiment in a line: MST; 40 nM AlexaFluor488-labelled AHK1 titrated with AHP2-GST (12.5 uM to 0.4 nM); HEPES/Tris 50 mM, 300 mM NaCl, FosCholine-16, 5% glycerol, pH 7.6; 40% MST power, 30% LED power; T-Jump evaluated; one-binding-site model; apparent Kd; seven measurements. Particulars: both partners purified.

Chain of AHP1 (Arabidopsis thaliana) (Q9ZNV9 whole entry): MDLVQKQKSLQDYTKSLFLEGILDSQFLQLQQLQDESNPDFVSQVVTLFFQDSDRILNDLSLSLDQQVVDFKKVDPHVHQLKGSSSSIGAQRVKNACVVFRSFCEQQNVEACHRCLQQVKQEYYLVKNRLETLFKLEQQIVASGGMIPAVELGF

Take ETR2 (from UniProt Q0WPQ2): in test [1], the Kd is 96 nM.

Regarding “recombinant full-length Arabidopsis histidine kinase AHK1 (H10-TEV-AHK1), solubilized in FosCholine-16 (from UniProt Q9SXL4 1-1207) (receptor)”, the Kd in test [2] was 208 nM.

Consider ETR1 (from UniProt P49333), for which the values for the Kd in test [3] and in test [4] were 1500 nM and 326 nM, respectively.

B1: GST-fusion protein of Arabidopsis histidine phosphotransfer protein 2 (AHP2) (natural protein, Arabidopsis thaliana, UniProt Q9ZNV8 1-156, looked up)
chain: MDALIAQLQRQFRDYTISLYQQGFLDDQFTELKKLQDDGSPDFVSEVLSLFFEDCVKLISNMARALDTTGTVDFSQVGASVHQLKGSSSSVGAKRVKTLCVSFKECCEAKNYEGCVRCLQQVDIEYKALKTKLQDMFNLEKQIIQAGGIVPQVDIN
notes: Arabidopsis histidine phosphotransfer protein 2 (AHP2), Arabidopsis thaliana; cDNA cloned into pGEX-6P-1; The apparent mass is 44 kDa; also called AHP2-GST; GST-tagged AHP2
Consider B1, for which, in test [5], the Kd is 317 ± 62 nM.

Values taken from PMC7154865, “High-Level Expression, Purification and Initial Characterization of Recombinant Arabidopsis Histidine Kinase AHK1” (Plants, 2020).
